The nanobody polyreactivity screen of Harvey et al. (2022)

Experiment: yeast display, Sf9 membrane polyspecificity reagent, FACS + sequencing; frameworks hold sequencing errors
How it was run: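 Galactose induction of a Saccharomyces cerevisiae BJ5465 synthetic nanobody display library ran 36–48 hours. The cells were then stained for 1 hour at 4 °C with 10% biotinylated, detergent-solubilized Sf9 membrane reagent, pulled down on streptavidin microbeads and FACS-sorted into low and high (top ~1%) gates on expression and reagent-binding fluorescence. Labels for polyreactivity follow the gate of origin.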

Sequence | polyreactivity (PSR sort gate)
QVQLVESGGGLVQAGGSLRLSCAASGRNFPVYAMGCYRQAPGKERELVAAMTRSDDSTYYADSVKGRFTISRDNAKNTVYLQMNSLKPEDTAVYYCAADVEGWTVESDVYRVGYDFWGQGTQVTVSS | low polyreactivity
QVQLVESGGGLVQAGGSLRLSCAASGFIFAQNAMGWYRQAPGKEREFVAAISSRGSRTYYADSVKGRFTISRDNAKNTVYLQMNSLKPEDTAVYYCAASRRTRSMNYWGQGTQVTVSS | high polyreactivity
QVQLVESGGGLVQAGGSLRLSCAASGSICGLYDMRWYRQAPGKERELVASITGGGSTYADSVKGRFTISRDNAKNTVYLQMNSLKPEDTAVYSFAAKPYSFYGYKYDYWGQGTQVTVSS | low polyreactivity
QVQRVESRGGLVQAGGTLRLSCAASGSTFGVNAKGCYSQAPGKDRELVATISRGTSTNYADSVKGRFTISRDNAKNTVYLQMNSLKPEDTAVYYCAKRVFYPGAYRYYYCGQGTQVTVSS | high polyreactivity
QVQLVESGGGLVQAGGSLRLSCAASGGTFAVNAMGWYRQAPGKEREFVAAISSRGSTYYADSVKGRFTISRDNAKNNVYLQMNSLKPEDTAVYYCAAYRSYWEVYPRMYYWGQGTQVTVSS | high polyreactivity
QVQLVESAGGLVQEGGILRLICADSGRIVYRYAMGWYRQAPGKERELVAAISRRGGSTYYEDSVKGRFTISRDNAKYTVIFQMNSLKAVDTAVYYFARYHWYYRVSKSDSWGQGTQVPVSS | high polyreactivity
QVQLVESGGGLVQAGGSLRLSCAASGFTIGPNAMGWYRQPPGKERELVAAISQSGGSTYADSVKGRFTISRDNAKNTVYLQMNSLKPEDTAVYYCAAQRARVNRYGGKFGYWGQGTQVTVSS | high polyreactivity
QVQVVESGGGLVQAGGSLRLSCAASGSTFRYYAMGWYRQAPGKERELVAGISKVGGRTYADSVKGRFTISRDNAKYTVYLQMNSLKTEDTAVYYCAADAVRRTPGYDYWGHGTQVTVSS | high polyreactivity
QVQLVESGGGLVQAGGSLRLSCAASGGSFIANAMGRYRQAPGTEREVVAAITSGGSTNYADSVKGRFTISRDNAKNTVYLQMNSLKPDDTAVYYCNAEQNPSGLYDYRGVEGEMGYWGQGTQVTVSS | low polyreactivity
QVQLVESGGGLVQAGGSLRLSCAASGLIFARNAMGWYRQAPGKERELVAAITRRGTSTYYADSVKGRFTISRDNAKNTVYLQMNSLKPEDTAVYYCAARGGGGQRYDYWGQGTQVTVSS | high polyreactivity
QVQLVESGGGLVQAGGSLRLSCAASGFTFDPYAMGWYRQAPGKERELVAAISWIGTNTYYADSVKGRFTISRDNAKNTVYLLMNSLKPEDTAVYYCAADGPTIAVGSYDYWGQGTQVTVSS | low polyreactivity
QVQLVESGGGLVQAGGSLRLSCAASGSTFYSYGMGWYRPAPGKERELVAAITKRVGRTYYADSVKGRFTISRDNAKNTVYLQMNSLKPEDTAVYYCAARAWTRSVPYGFYYWGQGTQVTVSS | high polyreactivity
QVQLVESGGGLVQAGGSLRLSCAASGSIFATYAMGWYRQAPGKERELVAAITSSDGSTNYADSVKGRFTISRDNAKNTVDLQMNRLKPEDTAVYYCATDAPDRTDSDSGFDAGYDYWGQGTQVTLSS | low polyreactivity
QVQLVESGGGLVQAGGSLRLSCAAYGINFLQYAMGWYRQAPGKDRELVAAITRRGDRTYYADSVKGRFTISRDNAKYTVYLQMISLKPEDTAVYYCAASYWYRDYYYWGQGTQVTVSS | high polyreactivity
QVQLLESGGGLVQAGGSLRLSCAASGTNFDYYLMGWYRQAPGKERELVAAISWSGASTYYADSVKGRFTISRDNAKNTVYLQMNSLKPEDSAVYYCAADYCVKTLIDYDYWGEGTQVTVSS | low polyreactivity
QVQLVESGGGLVQAGGSLRLSCAASGSIFGLYAMGWYRPAPGKEREFVATISKSGVSTYYADSVKGRFTISRDNAKNTVYLQMNSLKPEDTALYYCNADISRDNDFDYWGQGTQVTVSS | low polyreactivity
QVQLVESGGGLVQEGGSLRLSCAASGRIFYFYAMGRYRQAPGKERELVADIDWSGDSTYYADSVKGRFTISRDNAKITVYLQMNSLIPEDTAVYYCNAAYYYYSTSYTYDYWGQGTQVTVSS | low polyreactivity
QVQLVESGGGLVQAGGSLRLSCAASVSTFSGYAMGWYRQAPGKERELVAAISSSGGGTYYADSVKGRFTISRDNAKNTVYLQMNSLKPEDTAVFYCAAYKYFLGFVWYDYWGQGTQVTVSS | high polyreactivity
QVQLVESGGGLVQAGGSLRLSCAASGRTFGSYAMGWYRQAPGKEREFVASITGATTNYADSVKGRFTISRDNAKNTVYLQMNSLKQEDTAVYYCATDVGFGRKQRPHRPGYGYWGQGTQVTVSS | low polyreactivity
QEQLVESGGGIVQAGGTLRLSGADSGSIFVKNAMGWYRQAHGKERQWVARITYSGGSTYYADSVKGRFTISRDNAKNTVYLQMNSLKPEDTAVYYCAARYWYFPQPYYPGNDYWGQGTQVTVSS | high polyreactivity
QVQLVESGGGLVQAGGSLRLSCAASGPILGQYAMGGYRQAPGKERELVAAITYSGGRTYYADSVKGRFTISRDIAKNTVYLQMNSLKPEDTAVYYCAARGRASVERRGGYYYWGQGTQVTVSS | high polyreactivity
QVQLVESGGGLVQAGGSLRLSCAASGFTFPAYAMGWYRQAPGKERELVAAISSRGGSTYYADSVKGRFTISRDNAKNTVYLQMNSLKPEDTAVYYCASRRANGYYYWGQGTQVTVSS | high polyreactivity

Sequence | polyreactivity (PSR sort gate)
QVQLVESGGGLVQAGGSLRLSCAASGPTFHGYDMGWNRQAPGKERELVARINWSDGRTYYADSVKGRFTISRDNAKNTVYLQMISLKPEDTAVYYCAADKTGSYAPAWYYYWGQGTQVTVSS | low polyreactivity
QVQLVESGGGLVQAGGSLRLSCAASGRIFSAYVMGWYRQAPGKERELVAAISSGGSRTSYADSVKGRVTISRDNAKNTVYLQMISLKPEDTAVYYCAASATFWGQGTQVNVSS | high polyreactivity
QVQLVESGGGLVQEGGSLRLSCASSGFIFEDYAKGWYRQARGKERELVAAMRSNDDSTYYADSVKGRFTISRDNAKNSVYFQMNSLKPEDTAVYYCAAATYGTRLRRYYYWGQGSQVTVSS | high polyreactivity
QVQLVESGGGLVQAGGSLRLSCAASGIIFGFYAMGWYRQAPGKERELVAAITIDGSTYYADSVKGRFTISRDNAKTTVYLQMNILKPEDTAVYYCGAQYLNVYYWEDYLGQGTQVTVSS | low polyreactivity
QVQLEESGGGLVQAGGSLRLSCAASGITFSRYAMGWYRQATGKERELVARISSSGGSTNYADSVKGRFTISRDNAKNTVYLQMNSLKPEDSAVYYCAVATRGKVARRVTFDYWGQGTQVTVSS | high polyreactivity
QVQLVESGGGLVQAGGSLRLSCAASGFTFSAYAMGWYRQAPGKERELVAAITLRGGSTYYADSVKGRFTISRDNAKNTVYLQMNSLKPEDTAVYYCNADRWTRTEEEVDYWGQGTQVTVSS | low polyreactivity
QVQLVESGGGLVQAGGSLRLSCAASGRIFRRYAMGWYRQAPGKERELVAAISSGGSTYYADSVKGRFTISRDNAKKTVYLQMNSLKPEDTAVYYCNAKVGAYLNYGYWGQGTQVTVSS | low polyreactivity
QVQLVESGGGLVQAGGSLRISCAASGSTFSQYTMGWYRQAPGKERELVAAITWSGGRTYYADSVKGRFTISRDNAKNTVYLQMNSLKPEDTAVYYCNRDISGSSGGELDYWGQGTQVTVSS | low polyreactivity
QVQLVESGGGLVQAGGSLRLSCAPSGRTLYGYAMGWYRQAPGKVSALVASFRSGGSTNYADSVKGRFTISLDNAKNTVYLQMNSLKPEDTAVYYCAADPYYSYGYYHAHGRDDGYWGQCTQVTVSS | low polyreactivity
QVQLVESGGGLVQAGGSLRLSCAASGSIFSYYAMGWYRQAPGKERELVAGISISTGSTYYADSVKGRFTISRDNAKNTVYLQMNSLKPEDNAVYYCAAAQDDGYSQDIYYQLSAYDYWGQGTQVTVSS | low polyreactivity
QVKLVESGGGLVQAGGSLRLSCAASGRTFPSYAMGWYRQAPGKERELVAAISRSGGSTYYADSVKGRFTISRDNAKNPVYLQMNSLKPEDTAVYYCAAVSRVHFSYIYDYWGQGTQVTVSS | high polyreactivity
QVQLVESGGGLGQAGGSLRLSCAASGRIFDVYAMGWYRQAPGKERELVATISSSGGATYYADSVKGRFTISRDNAKYTVYLQMNSLKPEDTAVYYCATTYRPTFRRHYNYWGQGTQVTVSS | low polyreactivity
QVQLVESGGGLVQAGGSLRLSCAASGSTFLYYGMGWYRQSPGYERELVATITWRGGRTYYADSVKGRYTISRDNAKNTVYLQMNSLKPEDTAVYYCARVRLTTYGYYSWGQGTQVTVSS | high polyreactivity
QVQLVESGGGLVQAGGSLRLSCAASGSTFPWNAMGWYRQAPGKERELVAAIRTGGGRTYYADSVKGRFTISRDNAKNTVYLQMNSLKPEDTAVYYCNAYQSSGRYRNSYGYWGQGTQVTVSS | high polyreactivity
QVQLVESGGGLVQAGGSLRLSCAASGFTFYYYVMGWYRQAPGKERELVAAITNGGSTYYADSVKGRFTISRDNAKNTVYLQMISLKPEDTAVYYCATRQSHWSGEFDYWGQGTQVTVSS | high polyreactivity
QVHLVESGGGLVQAGGSLRLSCAASGLIFYDNMGWYRQAPGKERELVAAISSSGGSTSYADSVKGRFTISRDNAKNTVYLQMYSLKPEDTAVYYCAADSYPAYLGFVGYDYWGQGTQVTVSS | low polyreactivity
QVQLVESGGGLVKAGGSLLLSCAASGRTIAYNAMGWYRQATGKERELVDAISNSGGRTYYADSVKGRFTISRDNAKNTVYLQMKSLKPEDTAVYYCAAYPVYRSVVSAYGYNYWGQGTQVTVSS | high polyreactivity
QGQLGESGGGLVQAGGSLRLSCAASGRIFNCYGMGWYRQAPGKERELVATISKSSDITYYADSVKGRFTISRDIAKNNVYLQMNSLRPEDTAVYYCAAKVRQWRQGSYSSQYDYWGQGTQVTVSS | high polyreactivity
QVQLVESGGGLVQAGGSLRLSCAASGLTFYANAMGWYRQAPGKERELVAAITSSGGSTYYADSVKGRFTISRDNAKNTVYLQMNSLKPDDTAVYYCNAYFRPRYGYWGQGTQVTVSS | high polyreactivity
QVQLVESGGGLVQAGGSLRLSCAASGSIFYSYGMGWYRQAPGKERELVAAITSSGGGTYYADSVKGRFTISRDNAKNTVYLQMNSLKPEDTAVYYCAADDRNYNYYPTFYYWGQGTQVTVSS | low polyreactivity
QVQVVESGGGLVQAGGSLRLSCAASGRILYPYTMGWYRQAPGKERELVAAISYSGGRTYYADSVKGRFTISRDNAKNTVYLQMNRLKPEDTAVYYFNAVFRVRGASQFDYWGQGTQVTVSS | high polyreactivity
